Test results reported in PMC7064499.

Target: FliPQR complex, V. mimicus (FliP5Q4R1) (Vibrio mimicus (strain DSM 19130))
Assay: cryo-EM structure

With FlhB, V. mimicus (natural protein) as the substance, how does the stoichiometry N read?
Its stoichiometry N is 1.
